According to article PMC5595146 (Metallomics : integrated biometal science, 2017):

T1: S. pombe Php4 (WT), 6xHis-tagged (S. pombe, UniProt O14318 1-295)
T1 sequence (looked up): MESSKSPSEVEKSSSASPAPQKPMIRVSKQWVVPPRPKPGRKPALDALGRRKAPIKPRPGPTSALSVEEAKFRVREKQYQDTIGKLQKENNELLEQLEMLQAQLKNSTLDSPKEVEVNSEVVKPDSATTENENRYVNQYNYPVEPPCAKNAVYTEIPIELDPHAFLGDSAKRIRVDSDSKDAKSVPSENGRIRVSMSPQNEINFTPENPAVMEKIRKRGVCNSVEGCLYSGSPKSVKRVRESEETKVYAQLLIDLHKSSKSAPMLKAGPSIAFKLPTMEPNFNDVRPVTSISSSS

B1: S. pombe Grx4 (WT) (natural protein, UniProt O74790 1-244, looked up)
chain: MSVEITFVEQFQEILQNGKEQIILLNFYAPWAAPCKQMNQVFDQFAKDTKNAVFLKIEAEKFSDIAESFDVNAVPLFVLIHGAKVLARISGANPQKLKAAIDEYIQPLISQISSTNASVETQVNSVQTTNTTSNTSKAPNGLDSELNERLSTLTNAHNVMLFLKGTPSEPACGFSRKLVGLLREQNVQYGFFNILADDSVRQGLKVFSDWPTFPQLYIKGEFVGGLDIVSEMIENGELQEMLPN

Assays:
[1] = molecular target: the molecule itself; test: SEC
[2] = molecular target: T1, S. pombe Php4 (WT), 6xHis-tagged; test: SPR
[3] = molecular target: B1; test: CD-monitored titration

Kd [2] [µM]	koff [2] [s⁻¹]	kon [2] [M⁻¹ s⁻¹]	binding result [3]	Binder	binding result [1]
34.1	0.00219	64.3		B1	binds
897	0.00916	10.2		S. pombe Grx4 (C172A) (natural protein, UniProt O74790 1-244, looked up) MSVEITFVEQFQEILQNGKEQIILLNFYAPWAAPCKQMNQVFDQFAKDTKNAVFLKIEAEKFSDIAESFDVNAVPLFVLIHGAKVLARISGANPQKLKAAIDEYIQPLISQISSTNASVETQVNSVQTTNTTSNTSKAPNGLDSELNERLSTLTNAHNVMLFLKGTPSEPAAGFSRKLVGLLREQNVQYGFFNILADDSVRQGLKVFSDWPTFPQLYIKGEFVGGLDIVSEMIENGELQEMLPN	
			binds	S. cerevisiae Fra2^Δ1–35 (domain or fragment, UniProt P53082 36-120, looked up) MPVTEQGLRERIESAIPQVYHIIVTDLSYGCGQSFDIVVVSDFFQGKSKLMRSRAVNKAVKEELQEIHAFSCKCYTEEEWSKIVV	
